The text below walks through data of patent publication US20240076386A1 (Pfizer, published 2024).

For orientation: Kd means the constant that tells how readily two partners part at equilibrium. A word on the koff: it is the rate constant with which the complex falls apart. In general, kon refers to the rate constant with which the complex forms. Broadly, the t½ is how long it takes for the measured level to halve.

The target of assay [1] is T1, cynomolgus monkey E-selectin extracellular domain with 10 His purification tail (cynomolgus monkey, UniProt P16581 22-554 (human entry)).
T1 construct: also called cynomolgus E-selectin; truncated cynomolgus monkey E-selectin
T1 chain: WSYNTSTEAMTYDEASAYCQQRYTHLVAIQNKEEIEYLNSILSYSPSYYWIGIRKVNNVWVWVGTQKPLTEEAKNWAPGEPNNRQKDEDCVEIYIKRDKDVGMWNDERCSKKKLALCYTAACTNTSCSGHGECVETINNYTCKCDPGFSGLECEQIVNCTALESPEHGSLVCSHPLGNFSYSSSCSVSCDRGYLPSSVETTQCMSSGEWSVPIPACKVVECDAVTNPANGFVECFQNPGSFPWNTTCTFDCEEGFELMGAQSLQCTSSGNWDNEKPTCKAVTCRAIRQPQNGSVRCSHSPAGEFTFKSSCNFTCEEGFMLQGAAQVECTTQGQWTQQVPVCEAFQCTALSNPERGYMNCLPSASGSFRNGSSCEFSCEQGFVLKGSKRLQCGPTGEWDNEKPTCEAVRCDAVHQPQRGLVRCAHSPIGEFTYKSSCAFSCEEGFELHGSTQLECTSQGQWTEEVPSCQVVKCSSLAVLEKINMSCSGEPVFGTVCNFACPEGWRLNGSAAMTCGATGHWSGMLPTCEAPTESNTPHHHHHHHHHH
The experiment in a line: SPR, antibody captured, E-selectin analyte. On the technique in general: Surface plasmon resonance follows binding to a sensor surface in real time, without labels.

The target in assay [2] is T2, human E-selectin, cell-surface expressed (human, UniProt P16581 22-610).
T2 sequence: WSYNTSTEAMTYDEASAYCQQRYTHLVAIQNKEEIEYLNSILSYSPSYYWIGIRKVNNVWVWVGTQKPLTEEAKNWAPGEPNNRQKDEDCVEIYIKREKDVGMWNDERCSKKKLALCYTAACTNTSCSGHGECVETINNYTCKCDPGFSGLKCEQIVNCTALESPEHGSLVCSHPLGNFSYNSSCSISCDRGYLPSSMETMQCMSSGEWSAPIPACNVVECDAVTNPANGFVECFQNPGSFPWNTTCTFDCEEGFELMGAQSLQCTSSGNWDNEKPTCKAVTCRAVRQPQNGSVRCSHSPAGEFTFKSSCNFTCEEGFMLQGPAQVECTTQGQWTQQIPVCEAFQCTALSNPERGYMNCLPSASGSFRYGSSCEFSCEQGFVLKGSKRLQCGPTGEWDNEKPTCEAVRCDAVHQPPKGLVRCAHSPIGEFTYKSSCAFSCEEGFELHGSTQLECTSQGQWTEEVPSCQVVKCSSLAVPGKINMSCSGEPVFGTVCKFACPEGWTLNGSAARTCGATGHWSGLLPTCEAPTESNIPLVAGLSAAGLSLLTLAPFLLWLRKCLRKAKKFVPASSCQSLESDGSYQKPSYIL
The experiment in a line: cell-based or functional assay.

B1: anti-E-selectin antibody 0164 chimera (antibody, human IgG1, kappa, V domains shown)
VH: EVQLQQSGAEFGKPGTSVKLSCKVSGYNIRSSYMHWVNQRPGKGLEWIGRIDPANGNTIYAEKFKIKAILTADSSSNTAYMQLSQLKSDDTAIYFCAMDLYSTSEYWGQGVMVTVSS
VL: DIQMTQSPSFLSASVGDRVTINCKTSQNINRYLNWYQQKLGEAPKLLIYNANSLQTGIPSRFSASGSGTDFTLTINSLQPEDVATYFCLQDNSWPLTFGSGTKLEIKR
notes: rat VH/VL on effector-null human IgG1 and human kappa
In assay [1], B1 came in with an equilibrium dissociation constant (Kd) of 45.4 nM, a koff of 0.012 s⁻¹, a kon of 265000 M⁻¹ s⁻¹ and a t½ of 57.8 s. Moreover, the “static neutralization, HL-60 Cell adhesion CHO-Human E-selectin cells IC50 (nM)” value in assay [2] was above 50 % inhibition at 16.5 nM.
